# Laboratory results as given in paper PMC4330383.
# Key:
# [1] = target: histones H3-H4 (full-length, recombinant Drosophila melanogaster) (Drosophila melanogaster) (UniProt P02299); assay: SEC-MALS; Superdex 200 10/300 GL Increase, 50 mM Tris pH 8.0, 0.5 M NaCl, 20°C
# [2] = target: histones H3-H4 (full-length, recombinant Drosophila melanogaster) (Drosophila melanogaster) (UniProt P02299); assay: SEC-MALS; Superdex 200 10/300 GL Increase, 50 mM Tris pH 8.0, 1.5 M NaCl; for H3-H4 alone: tetramer of two H3-H4 dimers
# Chain of ASF1a (1–156) (Q9Y294 1-156): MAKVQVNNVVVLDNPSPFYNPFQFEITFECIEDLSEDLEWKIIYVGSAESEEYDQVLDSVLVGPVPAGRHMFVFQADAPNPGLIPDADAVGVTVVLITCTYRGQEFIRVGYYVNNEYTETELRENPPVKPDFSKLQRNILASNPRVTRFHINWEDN
stoichiometry N (ASF1 per H3-H4 dimer (ratio H3:H4:ASF1)) [1],stoichiometry N (ASF1 per H3-H4 dimer (ratio H3:H4:ASF1)) [2],stoichiometry N ([2]; scale: H3-H4 dimers in the oligomer),Substance
1,1,–,ASF1a (1–156) (from UniProt Q9Y294 1-156) (domain or fragment; other documents disagree on this pair)
–,–,2,"histones H3-H4 (full-length, recombinant Drosophila melanogaster) (from UniProt P02299 1-136; P84040 1-103) (complex)"
